Reference: paper doi:10.1101/726935

Molecular target: EBOV VP35 WT oligomerization domain (Zaire ebolavirus, Yambuku-Mayinga) (UniProt Q05127)
Test: SEC-MALS

“EBOV VP35 WT oligomerization domain (from UniProt Q05127 75-185) (domain or fragment)” was tested, and the stoichiometry N was 4.
